Results on three molecules are retold here after paper PMC3033571 (2011).

Assay [1] addresses T1, CaV1.2 IQ domain IQ domain (Homo sapiens, UniProt Q13936, Ca2+). Kind of assay: competition ITC.
Assay [2] addresses T1, CaV1.2 IQ domain IQ domain. Kind of assay: ITC, 15°C. A general note: Isothermal titration calorimetry measures the heat released or taken up as one component is titrated into another.
The target of assay [3] is T1, CaV1.2 IQ domain IQ domain. Kind of assay: ITC, 25°C.

T1 sequence (Q13936 1665-1685): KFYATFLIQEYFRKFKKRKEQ

B1: CaBP1 16-167 (protein)
chain: ARLQRVLGLGSRREPRSLPAGGPAPRRTAPPPPGHASAGPAAMSSHIAKSESKTSLLKAAAAAASGGSRAPRHGPARDPGLPSRRLPGSCPATPQSSGDPSSRRPLCRPAPREEGARGSQRVLPQAHCRPREALPAAASRPSPSSPLPPARG
On to B1, for which binding in assay [1] was put at a Kd of 0.288 nM.

B2: CaBP1 N-lobe N-lobe (protein)
chain: not shown
For B2, binding in assay [2] was put at a Kd of 1100 nM.

B3: CaBP1 C-lobe C-lobe (protein)
chain: ADMIGVKELRDAFREFDTNGDGEISTSELREAMRKLLGHQVGHRDIEEIIRDVDLNGDGRVDFEEFVRMMSR
For the molecule B3, the Kd in assay [3] worked out at 15 nM; in assay [2], 10.5 nM.

For orientation: Kd means the equilibrium constant for the complex coming apart.
